The results in this text go back to the nanobody polyreactivity screen of Harvey et al. (2022).

A short description of the data set: yeast display, Sf9 membrane polyspecificity reagent, FACS + sequencing; frameworks hold sequencing errors. In short, it runs like this:
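Nanobodies from a synthetic yeast display library (Saccharomyces cerevisiae BJ5465), induced 36–48 hours with galactose, were stained 1 hour at 4 °C with 10% biotinylated, detergent-solubilized Sf9 membrane reagent, enriched on streptavidin microbeads, then FACS-sorted. Anti-HA (expression) and streptavidin (reagent binding) fluorescence set low and high (top ~1%) gates. Polyreactivity labels come from the gate of origin. Genes were colony-PCR amplified, MiSeq 2 × 250 sequenced and filtered by CDR length.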
Take “QVQLVESGGGLVQAGGSLRLSCAASGSIFSGYVMGWYRQAPGKERELVAAISSGGSTYYADSVKGRFTISRDNAKNTVYLQMNSLKPEDTAVYYCAARSRKYGLLFYYWGQGTQVTVSS”: the “polyreactivity (PSR sort gate)” value was “high polyreactivity”. The entry for “QVQLVESGGGLVQAGGSLRLSCAASGSIFSHNAMGWYRQAPGKERELVASMTGSGGSTYYADSVKGRFTISRDNAKNTVYLHMNSLKPEDTAVYYCAADSYGRSETEDDYWGQGTQVTVSS” is “low polyreactivity”; for “QVQLVESGGGLVQAGGSLRLSCAASGSIFSHYAMGWYRQAPGKERELVAAISRSGGSTYYADSVKGRFTISRDNAKNTVYLQMNSLKPEDTAVYYCAKEGDSGYWFDYWGQGTQVTVSS” it is “low polyreactivity”; for “QVQLVESGGGLVQAGGSLRLSCAASGSIFSINAMGWYRQAPGKERELVAVISWIGGNTYYADSVKGRFTISRDNAKNTVYLKMNSLKPEDTAVYYCAVATGPVSYRRYYCGQGTQVTVSS” it is “high polyreactivity”.

Consider “QVQLVESGGGLVQAGGSLRLSCAASGSIFSKNAMGWYRQAAGKEWEWVAAISRSAGSTYYADSVKGRFTISRDNAKNTVYLQMNSLKPEDTAVYYCAAEGYRWVTAYYDYDEDYWGQGTQVTVSS”, for which the “polyreactivity (PSR sort gate)” value is on record as “low polyreactivity”. Consider “QVQLVESGGGLVQAGGSLRLSCAASGSIFSKYAMGWYRQAPGKERELVAAIDWSGGSTYYADSVKGRFTISRDNAKNTVYLQMNSLKPEDTAVYYCNAEYVVADYGYYTIEFDYWGQGTQVTVSS”, for which the “polyreactivity (PSR sort gate)” value is given as “low polyreactivity”. The entry for “QVQLVESGGGLVQAGGSLRLSCAASGSIFSKYTMGWYRQAPGKERELVAAIRGSGVRTYYADSVKGRFTISRDNAKNTVYLQMNSLKPEDTAVYYCAKVVYRGKVALWISSTAGSDYWGQGTQVTVSS” is “low polyreactivity”. As to “QVQLVESGGGLVQAGGSLRLSCAASGSIFSLYAMGWYRQAPGKERELVAAISRGGSTNYADSVKGRFTISRDNAKNTVYLQMNSLKPEDTAVYYCNAGFGVRRKHITFYTWYDYWGQGTQVTVSS”, the “polyreactivity (PSR sort gate)” value was “low polyreactivity”. With “QVQLVESGGGLVQAGGSLRLSCAASGSIFSLYAMGWYRQAPGKERELVAAISSSGTSTYYADSVKGRFTISRDNAKNTVYLQMNSLKPEDTAVYYCNAYREFDWGQGTQVTVSS” the entry was “high polyreactivity”; with “QVQLVESGGGLVQAGGSLRLSCAASGSIFSLYAMGWYRQAPGKERELVTAITSGGRTKYADSVKGRFTISRDNAKNTVYLQMNSLKPEDTAVYYCAARDDSEKRYLTQYAYNYWGQGTQVTVSS”, “low polyreactivity”.

For the sequence “QVQLVESGGGLVQAGGSLRLSCAASGSIFSPNAMGWYRQAPGKEMELVPRITSGGSTFYADSVKGRFTISRDYAKNTVYLQMYSLKPEDTAVSYCAAVQTRYTSVFSSTRYDYWGQGTQVTVSS”, the “polyreactivity (PSR sort gate)” value is listed as “low polyreactivity”.

As to “QVQLVESGGGLVQAGGSLRLSCAASGSIFSPNAMGWYRQAPGKERELVAAITDSGGSTYYADSVKGRFTISRDNAKNTVYLQMNSLKPEDTAVYYCAVATGLLYKSHGYWGQATQVTVSS”, the “polyreactivity (PSR sort gate)” value is “low polyreactivity”. The entry for “QVQLVESGGGLVQAGGSLRLSCAASGSIFSPNAMGWYRQAPGKERELVAAITRGGSTYYADSVKGRFTISRDNAKKTVYLQMNSLKPEDTAVYYCAKRSKQFSTQYLYGYWGQGTQVTVSS” is “low polyreactivity”. The entry for “QVQLVESGGGLVQAGGSLRLSCAASGSIFSPNDMGWYRQAPGKERELVAAITSAGSTYYADSVKGRFTISRDNAKNTVYLQMNSLKPEDTAVYYCSASYISVTDYAYFPLWYGYWGQGTQVTVSS” is “low polyreactivity”. With “QVQLVESGGGLVQAGGSLRLSCAASGSIFSPNDMGWYRQAPGKERELVAAITTAGSTYYADSVKGRFTISRDTAKNTVYLQMNSLKPEDTAVYYCAATYISVTDYAYFPLWYGYWGEGTQVTVSS” the entry was “low polyreactivity”; with “QVQLVESGGGLVQAGGSLRLSCAASGSIFSPYAMGWYRQAPGKEREFVAAITWSDGGTYADSVKGRFTISRDNAKNTVYLQMNSRKPEDTAVYYCAAKLASYLVTGMDYWGQGTQVTVSS”, “low polyreactivity”; with “QVQLVESGGGLVQAGGSLRLSCAASGSIFSPYAMGWYRQAPGKERELVAAISYGVGNTYYADSVKGRFTISRDNAKNTVYLQMNSLKPEDTAVYYCAAEEYDYVYPHYFTKGYYWGQGTQVTVSS”, “high polyreactivity”. Take “QVQLVESGGGLVQAGGSLRLSCAASGSIFSQKAMVWYRQAPGKERELVASISTGDSSTYADSVKGRFTISRDNAKNTVYLQMNSLKREDTAVYYCNAYRYNALPWRYVGYDYWGQGTQVTVSS”: the “polyreactivity (PSR sort gate)” value was “low polyreactivity”. With “QVQLVESGGGLVQAGGSLRLSCAASGSIFSQNAIGWYRQAPGKEMELVAAISSSGTRTYYADSVKGRFTISRDHAKNTVYLQMNSLKPEDTAVYYCNKVLFRPRFFVRSDYWGQGTQVSVSS” the entry was “high polyreactivity”; with “QVQLVESGGGLVQAGGSLRLSCAASGSIFSQYAMGWYRQAPGKERELVAAISRSGGTTYYADSVKGRFTISRDNAKNTVYLQMNSLKPEDTAVYYCAADLKARRGSYDRFYYWGQGTQVTVSS”, “high polyreactivity”.

Turning to “QVQLVESGGGLVQAGGSLRLSCAASGSIFSRNAKGWYRQAPGKERELVAAISRGANTYYADSVKGRLTISRDNAKNSVYLQMNSLKPEDTAVYYCAARIYKFPYTYDYWGQGTQVTVSS”, the “polyreactivity (PSR sort gate)” value is listed as “high polyreactivity”.

With “QVQLVESGGGLVQAGGSLRLSCAASGSIFSRNAMGWSRPAPGKERELVAAISWSGGRKYYADSVKGRFTISRDNAKNTVYLQMNSLKPEDTAVYYCAAKVGYLAAYGRIRVYRYGYWGQGTQVTVSS”, the “polyreactivity (PSR sort gate)” value is listed as “high polyreactivity”.

As for “QVQLVESGGGLVQAGGSLRLSCAASGSIFSRYAMGWYRQAPGKESELVAASRWTDSSTYYADSVKGRFTISRDNAKNTVYLQMNSLKPEDTAVYYCAKVYERGSNKVDYWGQGTQVTVSS”, the “polyreactivity (PSR sort gate)” value is reported as “low polyreactivity”. Consider “QVQLVESGGGLVQAGGSLRLSCAASGSIFSRYAMGWYRQAPGTERELVAAITSSGTSTYYADSVKGRFTISRDNAKNTVYLQMNSLKPEDTAVYYCAAAFRQRTSRYDYWGQGTQVTVSS”, for which the “polyreactivity (PSR sort gate)” value is given as “high polyreactivity”. With “QVQLVESGGGLVQAGGSLRLSCAASGSIFSRYTMAWYRQAPGKERELVARINSSGTSTYYADSVKGRFTISRDNAKNTVFLQMNSLKPEDTAVYYCARTSRHVRYDYWGQGTQVTVSS” the entry was “low polyreactivity”; with “QVQLVESGGGLVQAGGSLRLSCAASGSIFSRYTMGWYRQAPGKERELVARINSSGTSTYYADSVKGRFTISRDNAKITVYLQMNSLKPEDTAVYYCARTSRHVRYDYWGQGTQVTVSS”, “low polyreactivity”; with “QVQLVESGGGLVQAGGSLRLSCAASGSIFSSNAMGWYRQAPGKDRELVASISWTGGNTYADSVKGRFTISRDNAKNTVYLQMNSLKPEDTAVYYCNAGRSWDYWYGYDYWGQGTQVTVSS”, “low polyreactivity”. Turning to “QVQLVESGGGLVQAGGSLRLSCAASGSIFSSNAMGWYRQAPGKERELVAAISSSGGSTYYADSVKGRFTISRDNAKNTVYLQKNSLKPEDTAVYYCATGKQVYGHYYWGQGTQVTVSS”, the “polyreactivity (PSR sort gate)” value is recorded as “low polyreactivity”. The entry for “QVQLVESGGGLVQAGGSLRLSCAASGSIFSSNAMGWYRQAPGKERELVAAITSSGTRTYYADSVKGRFTISRDNAKNTVYLQMNSLKPEDTAVYYCATRLRRSDHRYPYDYWGQGTQVTVSS” is “low polyreactivity”; for “QVQLVESGGGLVQAGGSLRLSCAASGSIFSSYAMGWYRQAPGKERELVAAISQSGGDTYYADSVKGRFTISRDIAKNTVYLQMNSLKPEDTAVYYCAACVWYYPMDYWGQGTQGTVSS” it is “low polyreactivity”. The entry for “QVQLVESGGGLVQAGGSLRLSCAASGSIFSSYAMGWYRQAPGKERELVAAISSGGGITYYADSVKGRFTISRDNAKNTVYLQMNSLKPEDTAVYYCNARVARSNNGWYYYWGQGTQVTVSS” is “high polyreactivity”; for “QVQLVESGGGLVQAGGSLRLSCAASGSIFSSYAMGWYRQAPGKERELVAAISSSGDSTYADSVKGRFTISRDNAKNTVYLQMNSLKPEDTAVYYCAVGGAGSDDYWGQGTQVTVSS” it is “low polyreactivity”; for “QVQLVESGGGLVQAGGSLRLSCAASGSIFSSYAMGWYRQAPGKERELVAAISWRGGSTYYADSVKGRFTISRDNAKNTVYLQMNSLKPEDTAVYYCAAQYQYYGGRRYDYWGQGTQVTVSS” it is “high polyreactivity”.

Regarding “QVQLVESGGGLVQAGGSLRLSCAASGSIFSSYSMGWYRQAPGKERELVAAISSGDSTYYADSVKGRFTISRDNAKNTVYLQMNSLKPEDTAVYYCAAPWYAWGQGTQVTVSS”, the “polyreactivity (PSR sort gate)” value was “low polyreactivity”.

On to “QVQLVESGGGLVQAGGSLRLSCAASGSIFSTYAMGWSRQAPGKERELVAAITTSGGRTYYADSVKGRFTISRDNAKNTVYLQMNSLKPEDTAVYYCNAVRGGRYGLDYWGQGTQVTVSS”, for which the “polyreactivity (PSR sort gate)” value is on record as “high polyreactivity”. The entry for “QVQLVESGGGLVQAGGSLRLSCAASGSIFSTYAMGWYRQAPGKERELVAAISRRAGTTYYADSVKGRFTISRDNAKNTVYLQMNSLKPEDTAVYYCAALTESSSYGYWGQGTQVTVSS” is “low polyreactivity”; for “QVQLVESGGGLVQAGGSLRLSCAASGSIFSTYAMGWYRQAPGKERELVAALDDDGGSTYYADSVKGRFTISRDNAKNTVYLQMNSLKPEDTAVYYCNADYDGNGWAGDYSDSYDYWGQGTQVTVSS” it is “low polyreactivity”; for “QVQLVESGGGLVQAGGSLRLSCAASGSIFSTYVMVWYRQAPGKDRELVAAITVSVGSTYYADSVKGRFTISRDNAKNTVYLQMNSLKPEDTAVYYCAAYGGTGYPFDAYYHDYDYWGQGTQVTVSS” it is “low polyreactivity”.

For “QVQLVESGGGLVQAGGSLRLSCAASGSIFSVNAMGWYRQAPGKERELVAAISWRGGSTYYADSVKGRFTISRDNAKNTVYLQMNSLKPEDTAVYYCNAVISVKRSTRYGYWGQGTQVTVSS”, the “polyreactivity (PSR sort gate)” value is given as “low polyreactivity”. The entry for “QVQLVESGGGLVQAGGSLRLSCAASGSIFSVNAMGWYRQAPGKVRELVAAISWRGGSTYYADSVKGRFTISRYNAKTTVYLQMNSLKPEDTAGYYCNAVISVKRSTRYGYWGQGTQVTVSS” is “low polyreactivity”.
